A word on the Kd: it is a measure of binding affinity in units of concentration. What is called IC50 is the concentration needed to halve the response being measured.

Where two headings read alike, the source gives them in different places. Ends that are not written are not given here. Peptide text beside a SMILES is read from it. * marks the point of attachment. 5FAM = O=C1OC2(c3ccc(O)cc3Oc3cc(O)ccc32)c2ccc(C(=O)*)cc21; 5Flu = 5-carboxyfluorescein label

In assay [1] the target is Pdx1 15-mer peptide, fluorescently labeled (SPOP-binding region of pancreas/duodenum homeobox protein 1) (not stated (Figure 5A aligns a Homo sapiens and a Mesocricetus auratus sequence)). Description: fluorescence polarisation; two-fold dilution series of SPOP^MATH mixed with a constant 6-50 nM 5Flu-labeled peptide; 50 mM HEPES pH 7.5, 100 mM NaCl, 1 mM TCEP, 0.005% Tween-20; 25°C; one-site total binding fit; mean of three independent experiments. (Fluorescence polarisation rises when a labelled molecule tumbles more slowly, as on binding a larger partner.)

Assay [2] deals with T1, SPOP^MATH (SPOP MATH domain) (Homo sapiens, UniProt O43791).
T1 construct: bacterially expressed SPOP protein (SPOP^MATH); hexahistidine-MBP (with HRV 3C site) (N, cleaved yes); made in house; host or cells: E. coli BL21 (DE3); tracer peptide synthesized by Peptide Synthetics
Nature of the assay: FP competition assay: unlabelled peptide versus Puc-5Flu peptide on SPOP^MATH. Format: binding. As to conditions: read-out: IC50, FP competition, MyD88 peptides of varying length (Figure 1F). The procedure: (§1) Peptides and SPOP^MATH protein were diluted in FP buffer (50 mM HEPES pH 7.5, 100 mM NaCl, 1 mM TCEP, 0.005% Tween-20). Measurements were made in 384-well black flat-bottom low-flange plates (Corning) using 20 μl reaction volumes. Plates were equilibrated at room temperature for 30 minutes before reading. Millipolarization (mP) measurements were taken in a Hidex Sense microplate reader (Hidex) at 25°C, with excitation at 490 nm (20 nm filter), emission at 520 nm (14 nm filter), and a G-factor of 1.
The technical duplicate mP values were averaged, and error bars represent standard deviation. Data were plotted and analyzed using Prism 9 software. […] IC50 values from three independent experiments were averaged and the standard deviation was calculated.

Assay [3] has as its target T1, SPOP^MATH (SPOP MATH domain). Description: Fluorescence polarization (FP) binding of 5Flu-labelled peptides to SPOP^MATH. As to conditions: FP direct binding; 6-50 nM 5Flu-peptide, two-fold dilution series of SPOP^MATH; 50 mM HEPES pH 7.5, 100 mM NaCl, 1 mM TCEP, 0.005% Tween-20; 30 min at room temperature, read at 25°C; one-site total binding fit; mean ± SD of three independent experiments; ~ = estimated; read-out: Kd, binding of fluorescently (5Flu) labeled peptide to SPOP^MATH. The procedure: as §1

In assay [4] the target is T2, SPOP MATH domain (SPOP^MATH; residues 28-166) (human), O43791.
T2 chain: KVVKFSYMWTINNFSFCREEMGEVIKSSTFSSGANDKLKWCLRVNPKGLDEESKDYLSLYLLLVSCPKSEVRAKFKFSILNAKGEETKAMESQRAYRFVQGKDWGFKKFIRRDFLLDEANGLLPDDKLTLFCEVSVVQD
Nature of the assay: FP. As to conditions: modification not given.

For assay [5], the target named is T3, SPOP MATH domain (SPOP^MATH; residues 28-166) (human, UniProt O43791 28-166).
T3 chain: T2 chain
Description: FP.

Assay [6] addresses T4, SPOP MATH domain (SPOP^MATH; residues 28-166) (human, UniProt O43791 28-166).
T4 construct: the methods print 28-116; Cleaved with HRV 3C protease; also called speckle-type BTB/POZ protein MATH domain; source: E. coli BL21 (DE3), purified (Ni-NTA, tag cleavage, reverse Ni-NTA, SEC); not shown: His6, N-terminal, cleaved; MBP, N-terminal, cleaved
Nature of the assay: fluorescence polarisation; two-fold dilution series of SPOP^MATH mixed with a constant 6-50 nM 5Flu-labeled peptide; 50 mM HEPES pH 7.5, 100 mM NaCl, 1 mM TCEP, 0.005% Tween-20; 25°C; one-site total binding fit; mean of three independent experiments. As to conditions: both partners purified.

The target of assay [7] is T3, SPOP MATH domain (SPOP^MATH; residues …). Nature of the assay: FP.
Assay [8] addresses T4, SPOP MATH domain (SPOP^MATH; residues …). Description: fluorescence polarisation; competition: two-fold dilution series of unlabeled peptide with 50 nM Puc-5Flu peptide and 5 μM SPOP^MATH; 50 mM HEPES pH 7.5, 100 mM NaCl, 1 mM TCEP, 0.005% Tween-20; 25°C. As to conditions: both partners purified.

For “SPOP MATH domain (SPOP^MATH; residues 28-166) (from UniProt O43791 28-166) (domain or fragment)”, the Kd in assay [1] worked out at 48 µM. `CC(C)C[C@H](NC(=O)[C@@H]1CCCN1)C(=O)N[C@@H](CCC(N)=O)C(=O)N[C@H](C(=O)N[C@@H](C)C(=O)N[C@@H](C)C(=O)N[C@H](C(=O)N[C@@H](CC(=O)O)C(=O)N[C@@H](CO)C(=O)N[C@@H](CO)C(=O)N[C@H](C(=O)N1CCC[C@H]1C(=O)N[C@@H](CCCNC(=N)N)C(=O)N[C@H](C(=O)O)[C@@H](C)O)C(C)C)C(C)C)C(C)C`: the IC50 in assay [2] was ~0.518 mM. For AEKPLQVAAVAAAVPRT, in assay [2], the IC50 was ~2.11 mM.

As to `CC(C)[C@H](NC(=O)c1ccc2c(c1)C(=O)OC21c2ccc(O)cc2Oc2cc(O)ccc21)C(=O)N[C@@H](C)C(=O)N[C@@H](CCC(=O)O)C(=O)N1CCC[C@H]1C(=O)N[C@@H](CCC(=O)O)C(=O)N[C@@H](CCC(N)=O)C(=O)N[C@@H](CC(=O)O)C(=O)N[C@@H](CS)C(=O)N[C@@H](C)C(=O)N[C@H](C(=O)N[C@H](C(=O)N[C@@H](CO)C(=O)NCC(=O)N[C@@H](CCC(=O)O)C(=O)N[C@@H](CCC(=O)O)C(=O)O)[C@@H](C)O)C(C)C` (5FAM-VAEPEQDCAVTSGEE-OH), the Kd in assay [3] was ~48 µM. For the molecule AEKPLQVAAVAAAVPRT […], the IC50 in assay [4] worked out at 2.11 mM.

Molecule SRENLACDEVTSTTS [Puc peptide (unlabeled competitor; natural Puc peptide)] came in with an IC50 in assay [5] of 98.6 µM.

B1: Puc-5Flu peptide (SRENLACDEVTSTTSK-5Flu) (peptide)
peptide: SRENLACDEVTSTTSK(5Flu)
notes: added C-terminal lysine that carries the label; also called ^5Flu-Puc peptide; fluorescently labeled Puc peptide; source: synthetic peptide (Peptide Synthetics, Peptide Protein Research Limited)
In turn, B1 registered a Kd in assay [6] of 1100 nM.

B2: SRC-3 17-mer peptide 91NDDDVQKADVSSTGQGV107 (peptide)
peptide: NDDDVQKADVSSTGQGV
notes: also called NCoA-3; source: synthetic peptide
The molecule B2 gave an IC50 in assay [7] of 16.9 µM. Besides, in assay [8], the binding result is “binds”.

B3: chimeric MyD88-Puc peptide AEKPLQVAAVTSTTS (peptide)
peptide: AEKPLQVAAVTSTTS
notes: Puckered (Puc) SBC; also called chimeric peptide; source: synthetic peptide (Peptide Synthetics, Peptide Protein Research Limited)
B3: in assay [8], the binding result is reported as “binds”.

B4: SETD2 17-mer peptide DKGSVQAPEISSNSIKD (printed 363-1379) (peptide)
peptide: DKGSVQAPEISSNSIKD
notes: SET domain-containing protein 2 (SETD2), human; also called SET domain-containing protein 2; source: synthetic peptide
As to B4, the 50% inhibitory concentration (IC50) in assay [7] is ~699 µM. Further, the binding result in assay [8] is given as “binds”. Regarding LVSSTSEGY [Caprin1 9-mer peptide], the IC50 in assay [7] was ~773 µM.

B5: Caprin1 17-mer peptide 426QPEATQVPLVSSTSEGY442 (peptide)
peptide: QPEATQVPLVSSTSEGY
notes: Caprin1, human, residues 426-442; source: synthetic peptide
Molecule B5 showed an IC50 in assay [7] of 2.6 µM. For the same molecule, the binding result in assay [8] was “binds”. On to DTDNLQSEQLSSSSDGS [SENP7 17-mer peptide], for which the IC50 in assay [7] was ~2400 µM.

These data come from paper PMC7618200 (The Biochemical journal, 2025).
